# According to paper PMC10690619 (Frontiers in Microbiology, 2023):
# B1: cyclic 2,3-diphosphoglycerate synthetase from Methanothermus fervidus, N-terminally His-tagged (enzyme, UniProt O93732 1-460, looked up)
# chain: MGETKKMICLVDGEHYFPVVKDSIEILDDLEHIDVVAVVFIGGTEKLQIEDPKEYSEKLGKPVFFGPDPKKIPYDVIKKCVKKYNADIVMDLSDEPVVDYTKRFRIASIVLKEGAVYQGADFKFEPLTEYDVLEKPSIKIIGTGKRIGKTAVSAYAARVIHKHKYNPCVVAMGRGGPREPEIVEGNKIEITAEYLLEQADKGVHAASDHWEDALMSRILTVGCRRCGGGMLGDTFITNVKRGAEIANKLDSDFVIMEGSGAAIPPVKTNRQIVTVGANQPMININNFFGPFRIGLADLVIITMCEEPMATTEKIKKVEKFIKEINPSANVIPTVFRPKPVGNVEGKKVLFATTAPKVVVGKLVNYLESKYGCDVVGVTPHLSNRPLLRRDLKKYINKADLMLTELKAAAVDVATRVAIEAGLDVVYCDNIPVVIDESYGNIDDAIIEVVEMAIDDFKNNR
# notes: cyclic 2,3-diphosphoglycerate synthetase (cDPGS), Methanothermus fervidus; E. coli codon-optimised gene in pLATE51; 460 protein residues in the structures, which hold the entire polypeptide chain (N-terminal domain of 127 amino acids, C-terminal domain residues 136-460); No removal of the His tag is told; also called cDPGS; Mf-cDPGS
# B2: selenomethionine derivative of cyclic 2,3-diphosphoglycerate synthetase from Methanothermus fervidus (enzyme, UniProt O93732 1-460, looked up)
# chain: MGETKKMICLVDGEHYFPVVKDSIEILDDLEHIDVVAVVFIGGTEKLQIEDPKEYSEKLGKPVFFGPDPKKIPYDVIKKCVKKYNADIVMDLSDEPVVDYTKRFRIASIVLKEGAVYQGADFKFEPLTEYDVLEKPSIKIIGTGKRIGKTAVSAYAARVIHKHKYNPCVVAMGRGGPREPEIVEGNKIEITAEYLLEQADKGVHAASDHWEDALMSRILTVGCRRCGGGMLGDTFITNVKRGAEIANKLDSDFVIMEGSGAAIPPVKTNRQIVTVGANQPMININNFFGPFRIGLADLVIITMCEEPMATTEKIKKVEKFIKEINPSANVIPTVFRPKPVGNVEGKKVLFATTAPKVVVGKLVNYLESKYGCDVVGVTPHLSNRPLLRRDLKKYINKADLMLTELKAAAVDVATRVAIEAGLDVVYCDNIPVVIDESYGNIDDAIIEVVEMAIDDFKNNR
# modifications: selenomethionine in place of methionine
# notes: cyclic 2,3-diphosphoglycerate synthetase (cDPGS), Methanothermus fervidus; same construct as m1, made with selenomethionine; 460 protein residues, the entire polypeptide chain seen in the structure; Used for the ligand-free structure (SAD phasing); One protomer in the asymmetric unit; the dimer lies on a crystallographic dyad; also called SeMet cDPGS; apo-cDPGS; source: E. coli, PASM-5052 auto …
# What was measured:
# [1] = molecular target: T1, cDPGS (Mf-cDPGS), cyclic 2,3-diphosphoglycerate synthetase (Methanothermus fervidus, UniProt O93732); test: HPLC-MS detection of product; type: biochemical; settings: 50 mM ATP, 250 mM 2,3-DPG, 50 mM MgCl2, 300 mM KCl, 25 mM Tris-HCl pH 8.0, 65 C, 60 min
# T1 construct: gene cpgS; full length, 460 residues, N-terminal His6 tag (pLATE51, E. coli BL21(DE3), codon-optimised gene), homodimer ~100 kDa; apo structure solved from selenomethionine protein
# [2] = molecular target: the molecule itself; test: SEC; calibrated Superdex 200 HiLoad 16/60, 20 mM Tris-HCl pH 7.5, 300 mM KCl, 1.0 mL/min, after Ni2+ affinity
# [3] = molecular target: the molecule itself; test: crystal structure; ligand-free (apo) selenomethionine protein, space group I222, one protomer in the asymmetric unit, 1.7 Å, SAD; oligomeric state analysed with PISA
molecule,measurement,setting,value
O=C(O)[C@H]1COP(=O)(O)OP(=O)(O)O1 [cDPG],HPLC-MS detection of product,[1],The direct production of cDPG was monitored by HPLC–MS
B1,stoichiometry N,[2],2
B2,binding result,[3],binds
